Experimental findings from patent US20230302123A1 are described below.

For this test, the target named is ubiquitin-specific protease 7 (USP7/HAUSP), endogenous in human H1299 and HCT116 cells (human) (UniProt Q93009). In words: cell-based or functional assay.
Sequence of UniProt Q93009 (Q93009 whole entry): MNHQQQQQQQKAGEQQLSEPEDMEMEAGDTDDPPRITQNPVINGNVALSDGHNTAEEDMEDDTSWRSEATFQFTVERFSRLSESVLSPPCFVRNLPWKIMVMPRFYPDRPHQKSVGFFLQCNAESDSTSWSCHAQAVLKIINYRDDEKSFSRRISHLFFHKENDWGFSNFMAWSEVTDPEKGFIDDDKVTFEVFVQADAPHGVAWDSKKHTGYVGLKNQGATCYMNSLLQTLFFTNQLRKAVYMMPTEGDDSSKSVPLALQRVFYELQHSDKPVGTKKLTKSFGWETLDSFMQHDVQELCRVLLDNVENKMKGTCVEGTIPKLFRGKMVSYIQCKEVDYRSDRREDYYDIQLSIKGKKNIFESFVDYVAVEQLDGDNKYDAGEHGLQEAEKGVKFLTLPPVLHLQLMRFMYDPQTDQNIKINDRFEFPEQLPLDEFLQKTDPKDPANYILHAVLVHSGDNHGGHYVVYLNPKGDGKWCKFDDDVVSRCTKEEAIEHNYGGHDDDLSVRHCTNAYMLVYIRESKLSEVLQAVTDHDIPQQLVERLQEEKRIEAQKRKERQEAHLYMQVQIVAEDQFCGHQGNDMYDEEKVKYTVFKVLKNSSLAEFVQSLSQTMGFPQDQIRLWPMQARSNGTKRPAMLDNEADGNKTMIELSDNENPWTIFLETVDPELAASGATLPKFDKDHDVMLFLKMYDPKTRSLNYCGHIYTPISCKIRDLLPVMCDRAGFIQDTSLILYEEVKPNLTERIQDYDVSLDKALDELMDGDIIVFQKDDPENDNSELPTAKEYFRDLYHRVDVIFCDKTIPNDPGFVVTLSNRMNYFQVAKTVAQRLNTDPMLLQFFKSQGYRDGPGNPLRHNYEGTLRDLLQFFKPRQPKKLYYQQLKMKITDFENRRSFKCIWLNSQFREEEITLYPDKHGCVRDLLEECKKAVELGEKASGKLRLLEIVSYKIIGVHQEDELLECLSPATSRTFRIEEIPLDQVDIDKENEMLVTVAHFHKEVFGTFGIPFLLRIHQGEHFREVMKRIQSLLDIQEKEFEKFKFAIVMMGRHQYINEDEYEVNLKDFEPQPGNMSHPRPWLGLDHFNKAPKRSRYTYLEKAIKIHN

In turn, “DBP-S76A of the virus mutant UBM2 (H5pm4250) (from UniProt P03265 1-529)” showed a USP7 diffusely distributed within the nucleus, 48 h p.i. (immunofluorescence) (% of the UBM2-infected cells) of 45; a partial relocalization of USP7 into ring-like or rosette-shaped replication centers, 48 h p.i. (immunofluorescence) (% of the UBM2-infected cells) of 55; a relocalization of USP7 into viral replication centers (immunofluorescence) (% of the infected cells) of 100.
